The target of the assay is T1, inhibin A (InhA), mature heterodimer, unlabelled (UniProt P05111 233-366; P08476 311-426).
T1 construct: inhibin α subunit, residues 233-366 of NP_002182.1; inhibin βA subunit, residues 311-426 of NP_002183.1; The His and Strep tags stood on the two chains of the pro-inhibin; source: expi293F, secreted as pro-inhibin, purified by His and Strep tags; mature dimer purified on C18 RPC; copies: 1 + 1
T1 sequence (looked up) 1: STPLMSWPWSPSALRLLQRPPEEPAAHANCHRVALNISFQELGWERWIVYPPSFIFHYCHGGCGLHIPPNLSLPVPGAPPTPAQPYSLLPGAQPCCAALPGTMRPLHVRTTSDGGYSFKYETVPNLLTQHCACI
T1 sequence (looked up) 2: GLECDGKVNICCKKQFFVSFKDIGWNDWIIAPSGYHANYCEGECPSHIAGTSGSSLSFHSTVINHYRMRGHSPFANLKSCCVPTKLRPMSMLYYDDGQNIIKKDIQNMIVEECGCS
Briefly: NMR titration; methyl 1H-13C SOFAST-HMQC of labelled BG_ZP-C (15-25 µM) with growth factors; 25 mM 2H-glycine pH 11.0 or 25 mM phosphate pH 6.0; 37 °C. The note with it: both partners purified.

B1: rat betaglycan ZP-C domain, bacterially expressed, isotopically labelled (domain or fragment, UniProt P26342 590-757, looked up)
chain: GNATFNMELYNTDLFLVPSPGVFSVAENEHVYVEVSVTKADQDLGFAIQTCFLSPYSNPDRMSDYTIIENICPKDDSVKFYSSKRVHFPIPHAEVDKKRFSFLFKSVFNTSLLFLHCELTLCSRKKGSLKLPRCVTPDDACTSLDATMIWTMMQNKKTFTKPLAVVLQ
modifications: 2H, 13C-methyl Isoleucine, Leucine, Valine (ILV) labeled
notes: betaglycan (TGFBR3), rat, residues 590-757 of NCBI NP_058952; A thrombin site lies between the Trx-His6 cassette and the domain; also called 13C-methyl-Ile BG_(ZP-C); ILV labeled BG_(ZP-C)
For B1, the binding result was “binds”.

The values above are taken from PMC11865472, “Structures of TGF-β with betaglycan and signaling receptors reveal mechanisms of complex assembly and signaling” (Nature Communications, 2025).
